Twelve molecules from patent WO2021228904A1 (dated 2021) can be followed below.

The test concerns the target SARS-CoV-2 receptor binding domain (RBD), amino acids 319-541, octahistidine tag (SARS-CoV-2, UniProt P0DTC2 319-541). In words: not named there; ELISA in Example 4. (ELISA stands for enzyme-linked immunosorbent assay.)

B1: SEQ ID NOs: 217/221 (HCVR/LCVR) (antibody, V domains shown)
VH: EVQLVESGGGLVQPGGSLRLSCAASGFTFSSYDMHWVRQTTGKGLQWVSAIGTAGDTYYPGSVKGRFTISRENAKNSLYLQMNSLRAGDTAVYYCARGGDRYPVGYFDLWGRGTLVTVSS
VL: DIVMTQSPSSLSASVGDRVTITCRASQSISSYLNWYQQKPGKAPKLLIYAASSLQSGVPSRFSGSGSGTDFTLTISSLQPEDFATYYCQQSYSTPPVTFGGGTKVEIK
Take B1: the binding result is “binds”.

B2: SEQ ID NOs: 653/657 (HCVR/LCVR) (antibody, V domains shown)
VH: EVQLVESGGGLVQPGRSLRLSCAASGFTFDDYAMHWVRQAPGKGLEWVSGISWNSGSIGYADSVKGRFTISRDNAKNSLYLQMNSLRAEDTALYYCAKMGPDPAHDYGRKNDAFDIWGQGTMVTVSS
VL: DIVMTQSPSSLSASVGDRVTITCRASQSMSSYLNWYQQKPGKAPKLLIYAASSLQSGVPSRFSGSGSGTDFTLTISSLQPEDFATYYCQQSYSTLTFGGGTKLEIK
As for B2, the binding result is recorded as “binds”.

B3: SEQ ID NOs: 57/61 (HCVR/LCVR) (antibody, V domains shown)
VH: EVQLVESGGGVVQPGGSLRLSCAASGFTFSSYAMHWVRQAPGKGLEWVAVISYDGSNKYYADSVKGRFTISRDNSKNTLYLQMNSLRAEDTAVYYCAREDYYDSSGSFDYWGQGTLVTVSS
VL: QSVLTQPASVSGSPGQSITISCTGTSSDVGGYNYVSWYQQHPGKAPKLMIYDVSNRPSGVSNRFSGSKSGNTASLTISGLQAEDEADYYCSSYTSSSTRHWVFGGGTKLTVL
On to B3, for which the binding result is “binds”.

B4: 002_P2C4 (antibody, V domains shown)
VH: QVQLVESGAEVKKPGSSVKVSCKASGGTFSSYGINWVRQAPGQGLEWMGGIIPIFGTANYAQKFQGRVTITTDESTSTAYMELSSLRSEDTAVYYCASFGDDSGDEGVRWGQGTLVTVSS
VL: EIVMTQSPATLSLSPGERATLSCRASQSVSSYLAWYQQKPGQAPRLLIYDASNRATGIPARFSGSGSGTDFTLTISSLEPEDFAVYYCQQRSNWPPYTFGQGTKVEIK
On to B4, for which the binding result is reported as “binds”.

B5: SEQ ID NOs: 557/561 (HCVR/LCVR) (antibody, V domains shown)
VH: EVQLVESGGGVVQPGRSLRLSCAASGFTFSSYAMHWVRQAPGKGLEWVAVISYDGSYKYYADSVKGRFTISRDNSKNTLYLQMNSLTAEDTAVYYCAREGSRQWLVIYFDYWGQGTLVTVSS
VL: AIRMTQSPSSLSASVGDRVTITCRASQSISSYLNWYQQKPGKAPKLLIYAASSLQSGVPSRFSGSGSGTDFTLTISSLQPEDFATYYCQQSYTTFIYTFGQGTKLEIK
For B5, the binding result was “binds”.

B6: SEQ ID NOs: 73/77 (HCVR/LCVR) (antibody, V domains shown)
VH: EVQLVESGGGLVQPGGSLRLSCAASGFTVTSTYMTWVRRAPGKGLEWVSIIYNDDTTYYADSVKDRVTVSRDDSKNTLYLQMNSLRAEDTAIYYCARGGYYYDPSGYYSRSFSFDYWGQGTLVTVSS
VL: NFMLTQPASVSGSPGQSITISCTGSSSDIAPYTFVSWYQQHSGTAPKLIIYDVRNRPSGISDRFSGSRSGNTASLSISGLQAEDEADYYCSAYTTTSTSWVFGGGTKLTVL
Take B6: the binding result is given as “binds”.

B7: SEQ ID NOs: 421/425 (HCVR/LCVR) (antibody, V domains shown)
VH: EVQLVQSGAEVKKPGASVKVSCKASGYTFTSYDINWVRQATGQGLEWMGWMNPNSGNTGYAQKFQGRVTMTRNTSISTAYMELSSLRSEDTAVYYCARVVGSSWYPVDAFDIWGQGTRVTVSS
VL: QSVLTQPASVSGSPGQSITISCTGTSSDVGGYNYVSWYQQHPGKAPKLMIYDVSNRPSGVSNRFSGSKSGNTASLTISGLQAEDEADYYCSSYTSSSTLVVFGGGTKLTVL
As for B7, the binding result is on record as “binds”.

B8: SEQ ID NOs: 621/625 (HCVR/LCVR) (antibody, V domains shown)
VH: QVQLVQSGAEVKKPGASVKVSCKVSGYTLTELSMHWVRQAPGKGLEWMGGFDPEDGETIYAQKFQGRVTMTEDTSTDTAYMELSSLRSEDTAVYYCATAYSVDTAMVRGVGYWGQGTLVTVSS
VL: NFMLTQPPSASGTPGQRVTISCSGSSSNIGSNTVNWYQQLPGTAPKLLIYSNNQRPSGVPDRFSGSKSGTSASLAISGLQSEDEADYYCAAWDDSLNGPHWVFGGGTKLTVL
Consider B8, for which the binding result is “binds”.

B9: SEQ ID NOs: 461/465 (HCVR/LCVR) (antibody, V domains shown)
VH: EVQLVESGAEVKKPGSSVKVSCKASGGTFSSYAISWVRQAPGQGLEWMGGIIPIFGTANYAQKFQGRATITTDESTSTAYMELSSLGSEDTAVYYCARTHSYDNSGQYFDYWGQGTMVTVSS
VL: DIVMTQSPATLSLSPGERATLSCRASQSVSSFLAWYQQKPGQAPRLLIYDASNRATGIPARFSGSGSGTDFTLTISSLEPEDFAVYYCQQRSNWPPRLTFGGGTKVDIK
For B9, the binding result is “binds”.

B10: SEQ ID NOs: 661/665 (HCVR/LCVR) (antibody, V domains shown)
VH: EVQLVESRAEMKKPGESLKISCKGSGYTFTNHWIAWVRQMPGKGLEWMGIIYPGDSDTRYSPSFEGQVTISADKSISTAYLQWSSLKASDTAMYYCARRGYTYGADFYGLDVWGQGTRVTVSS
VL: not shown
Consider B10, for which the binding result is listed as “binds”.

B11: SEQ ID NOs: 493/497 (HCVR/LCVR) (antibody, V domains shown)
VH: EVQLVQSGAEVKKPGESLKISCKGSGYSFTSYWIDWVRQMPGKGLEWMGIFYPGDSDTRYSPSFQGQVTISADKSISTAYLQWSSLKASDTAMYYCARHNPDYYDSSGPLDYWGQGTLVTVSS
VL: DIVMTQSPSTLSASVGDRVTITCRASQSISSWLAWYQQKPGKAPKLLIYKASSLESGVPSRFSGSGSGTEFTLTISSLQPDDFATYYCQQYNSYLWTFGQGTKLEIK
For B11, the binding result is on record as “binds”.

B12: 001_P1G11 (antibody, V domains shown)
VH: EVQLVQSGTEVKKPGASVKVSCKASGYTFPGYYIHWVRQAPGQGLEWMGWINPNSGVAKSAQKFQGRVTMTRDSSISTVYLDVTSDDTAVYYCARDLVWATVSGTMDVWGQGTTVTVSS
VL: QSALTQPPSASGSPGQSVTISCTGTSSDIGTYNYVSWYQQHPGKAPKLMIYEVTKRPSGVPDRFSGSKSGNTASLTVSGLQADDEGDYYCSSYVGNNNWVFGGGTKLTVL
Turning to B12, the binding result is listed as “binds”.
